Experiment: yeast display, Sf9 membrane polyspecificity reagent, FACS + sequencing; frameworks hold sequencing errors
Procedure, shortened: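 Polyreactivity labels are assigned by the sorting gate from which each nanobody was recovered. The gates were low and high (top ~1%), set on anti-HA fluorescence for expression and streptavidin fluorescence for reagent binding. Before sorting, galactose-induced (36–48 hours) yeast display cells were stained for 1 hour at 4 °C with 10% biotinylated, detergent-solubilized Sf9 membrane reagent.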

Row | Sequence | polyreactivity (PSR sort gate)
1 | QVQLVESGGGLVQAGGSLRLSCAASGSTFARYAMGWYRQAPRKERELVAAISRSGGSTNYADSVKGRFTISRDNAKNTVYLQMNSLKPEDTAVYYCAVRSGYYDKYVRGYDYWGQGTQVTVSS | high polyreactivity
2 | QVQRVESGGALVQAGGSLRLSCAASGSIIGINAMGWYRPAPGKERELVAAINGGGSTYYADSVKGRFTISRDNAKNTVYLQMHSLKPEDTAVYYCAAEWGTSWYDYRGQGTQVTVSS | low polyreactivity
3 | QVQLVESGGGLDQAGGSLRLSCAASGRIFTVYGMGWYRQAPGKERELVAAISWSGGGTYYADSVKGRFTISRDNAKNTVYLQMNSLKPEDTAVYYCNADRQYTWSLVFFSSDYDYWGQGTQVTVSS | low polyreactivity
4 | QVQLQESGGGLVQAGGSLRLSCAASGSIYDDTYMGWYRQAPGKERELVATIDSGSTTNYADSVKGRITISRDNAKYTVYLQMNSLKPEDTAVYYCAAADSHIDYFDYWGQGTQVTVSS | low polyreactivity
5 | QVQLVESGGGLVQAAGSLRLSCAASGYTSSVYAMGWYIQAHGKERELVAAISADGGSTYYADSVKGRFTISRDNAKNTVYLQMNSLKPEDTAVYYCAKYTYPYTPYSWWYDYWGQGTQVTVSS | low polyreactivity
6 | QVQLVESGGGLVQAGGSLRLSCAASGFIFYSYDMGWYRQAPGKERELVAAIDSRGVNTYFADSVKGRFTISRDNAKNTVYLQMNSLKPEDTAVYYCNVDAITWWDWEDFDSWGQGTQVTVSS | low polyreactivity
7 | QVHLVESGGGLVQAGGSLRLSCAASGRIFGLYAMGWYRQAPGKERELVASISYNGGSTYYADSVKGRFTISRDNAKNTVYLQMNSLKPEDTAVYYCAASLYYYGVRFGYWGQGTQVTVSS | high polyreactivity
8 | QVQLVESGGGLVQAGGSLRLICAASGLIFAVYAMGWYRQAPGKERELVAGISASAASTYYADSVKGRFTISRDNAKNTVFLQMNSLNPEDTAVYYCAADFYWFWTYGTLWYGYEYWGLGTQVTVSS | high polyreactivity
9 | QVQLVESVGGLVQAGGSLRLSCAASGSIFDSNAMGWYRQAPGKVRELVASITSSGGSTYYADSVKGRFTISRDNAKKTVYLQMNSLKPEDTAVYYCAAKQAQRRYRQWSTSGYWGQGTQVTVSS | high polyreactivity
10 | QVQLVESGGGLVQAGGSLRLSCAACGRTFGWYAMGWYRQAPGTERELVATISSRGGATYYADSVKGRFTISRDNAKNTVYFQMNSLKPEDTAVYYCAAYSRTFEGHRGGYWGQGTQVTVSS | high polyreactivity
11 | QVQLVESGGGLVKAGGSLRLSCAASGLIFAYYDMGWYRQAPGKERELVASITGSGGDTYYADSVKGRFTISRDNAKNTVYLQMNSLKPEDTAVYYCNAYYGAAFTYWDDYWGQGTQVTVSS | low polyreactivity
12 | QVKLVESGGGLVQAGGILRLSCAASGLIFTTYAMGWYRQAPGKERELVAVISGCGSTSYADSVKGRFTISRDNAKNTVYLQMNSLKPEDTAVYYCAADKPVSQGPIPGYTNDYWGQGTQVTVSS | low polyreactivity
13 | QVQLVESGGGLLQAGGSLRLSCAASGFTFRNYAMGWYRQAPGKEREFVAAITGRGGSTYYADSVKGRFTISRDNAKNTVYLQMNSLKPEDTAVYYCNAYSGVSFYSSWYGYWGQGTQVTVSS | high polyreactivity
14 | QVQLVESGGGLVQAGGSLRLSCAASGSTLHSYAMGWYRQAPGKERELVAAISFRGGSTYADSVKGRFTISRDNAKNTVYLQMNSLKPEDTAVYYCAAYSVYTMYWGQGTQVTVSS | low polyreactivity
15 | QVHLVESGGGLVQAGGSLRLSCAASGSTIRYYAMGWYRQAPGKERELVAAITKSGGSTYYADSVKGRFTISRDNAKNTVYLQMNSLKPEDTAVYYCAAFRRWYYPALSEHDYWGQGTQGTVSS | low polyreactivity
16 | QVQLVESGGGLVQAGGSLRLSCAASGITFNVYTMGWYRQAPGKERELVAAITSSGGSTYYADSVKGRFTISRDNAKNTVYLQMNSLKPEDTAVYYCAARGWTRYSPSSRWYDYWGQGTQVTVSS | high polyreactivity
17 | QFQLVESGGGLVQAGGSLRLSCAASGSIFEPYAMGWYRQAPGKETELVATAITYSGGSTYYADSVKGRFTISRDNAKNTVYLQMNSLKPEDTAVYYCAADDWGDGVYKLDYWGQGTQVTVSS | low polyreactivity
18 | QVQLVESGGGLVQAGGSLRLSCAASGGTFEVNAMGWYRQAPGKERELVAAIDTSDGSTYYADSVKGRFTISRDNAKNTVYLQMNSLKPEDTAVYYCAAERLFRFWYSAYERYDYWGQGTQVTVSS | low polyreactivity
19 | QVQLVESGGGLVQAGGSLRLSCAASGSTFSPYAMGWYRQAPGKERELVAAISYDGGSTYYADSVKGRFTISRDNAKNTVYLQMNSLKPDDTAGYYCAADYFRSYEGTYWVVASYYYWGQGTQVTVSS | low polyreactivity
20 | QVQLVESGGGLVQAGGSLRLSCAASGSTFGYYAMGWYRQAPGKERELVATINRSGGSTYYADSVKGRFTISRDNAKYTVYLQMNSLKPEDTAVYYCNKLAYAGFRYIGSGYWGQGTQVTVSS | low polyreactivity
21 | QVQLVESGGGLVQAGGSLLLSCAASGSIFYSNAMGWYRKAPGKERELVAAIRRSGGSTYYADSVKGRFTISRDNAKYTVYLQMNSLKPEDTAVYYCATTRRVPGEYWGQGTQVTVSS | high polyreactivity
22 | QVQLVESGGGLVQAGGSLRFSCAASGRTITRYAMGWYRQAPGKERELVAAISKRGTRTYYADSVKGRFTISRDHAKNTVYLQMNSLKPADTAVYYCNGAGRWALYYHLYTGFDYWGQGTQVTVSS | high polyreactivity

Row | Sequence | polyreactivity (PSR sort gate)
23 | QVQLVESGGGLVQAGGSLRLSCAASGFTFGNYAMGWYRQAPGKERELVAAISSRGGSTYYADSVKGRFTISRDNAKNSVYLQMNSLKPEDTAVYYCNALRLEVDMGYWGQGTQITVSS | high polyreactivity
24 | QVQLQESGGGMVQAGGSLRLSCAASGYISWADYMGWYRQAPGKERELVAGIGYGSTTYYADSVKGRFTISRDNAKNTAYLQMNSLKPQYTAVYYCAVGWYRDTAYKYWGQGTQVTVSS | low polyreactivity
25 | QVQLVESVGGLVQAGGSLRLSCAASGFTFSTNAMGWYRQAPGKERELVAAISRGGSTNYADSVKGRFTISRDNAKNTVYLQMNSLKPEDTAVYYCNAYLSPDEEEYYWGQGTQVTVSS | low polyreactivity
26 | QVQLVESGGGLVQAGGSLRLSCAASGRIFGVYAMGWYRQAPGKERELVAAITSSGGRTYYADSVKGRFTISRDNAKNTVYLQMNSLKPEDTAVYYCAALGLSRRGKFNYWGQGTQVTVSS | high polyreactivity
27 | QVQLVETGGCLVQAGGSLRLSCAASGSTLHYYAMGWSRQAPGKQREFVAGISRYGGRTYNADSVKGRFTISRDNAKNTVYLQMNSLKPEDTAVYYCNAVLVGYRPYREFDHWGQGTQVTVSS | high polyreactivity
28 | QVQLVESGGGLVQAGGSLRLSCAASGFIFRRNAMGWYRQAPGKERELVAAIRQRGDSTYYADSVKGRFTISRDNAKITVYLQMNSLKPEDTAVYYCNAVAKLYYWRYDYWGQGTQVTVSS | low polyreactivity
29 | QGQLVESGGGLVQAGGSLRLSCAASGRTFIGNVMGWYRQAPGKERELVAAISKSGTRTYYADSVKGRFTISRDIAKNTVYLQMNSLKPEDTAVYYCAASSYTHKRYPSPYDYWGQGTQVTVSA | high polyreactivity
30 | QVQLVESGGGLVQAGGSLRLSCAASGIIFDDYAMGWYRQAPGKERELVAAISVSGGSTYYADSVKGRFTISRDNAKNTVYLQMNSLKPEDTAVYYCAARLIVGRFLRYDYWGQGTQVSVSS | high polyreactivity
31 | QVQLVESGGGLVQAGGSLRLSCAASGNTITFNTMAWYRQAPGKEREVVAVISRSGGSTYYADSVKGRFTISRDNAKNTVYLQMNSLKPEDTAVYYCAATGFSYRYFQTRDYWGQGTQVTVSS | high polyreactivity
32 | QVQLVESGGGLVQAGGSLRLSCAASGRIFSRNARGWYRQATGKERELVAAITARSGTTFYADSVKGRFTISRDNAKNTVYLQMNSLKPEDTAVYYCAADGSPSLLDYWGQGTQVTVSS | high polyreactivity
33 | QVQLVESGGGLVQAGGSLRLSCAASGLTFYIYAMGWYSQAPGKERELVAAVSNGGGNTYYADSVKGRCTISRDNAKNTVYLQMNSLKPEDTAVYYCAAKNDYVYPINPLYYYWGQGTQVTVSS | high polyreactivity
34 | QVQLVESGGGLVQAGGSFRLSCPASGGPVDTYVMGCYRQARGKERELVAVITRGASTYYADSVKGRFTITRDNAKNTVYLQNNRLKPEDTAVYYCAAAFYSPDFYRFWYSFDYWGQGTQVTVSS | low polyreactivity
35 | QVQLVESGGGLVQAGGSLRLSCAASGRTFFYYAMGWYRQAPGKERELVAAISGRGGSTYYADSVKGRFTISRDNAKNTVYLQMNSLKPVDTAVYFCAAQSPFRRYTSPWYDYWGQGTQVTVSS | high polyreactivity
36 | QVQLVESWGGLVQAGGSLRLSCAASGLTFETYVMGRYRQAPGKEREFVAAISSSGRTYYADSVKGRFTISRDNAKNTVYLQMNSLKPEDTAFYYCAARGREFGYWGQGTQVTVSS | high polyreactivity
37 | QVQHVDSGGGLVQAGGSLRLSCAASGRTLTVYAMGWYRQAPGKERELVAAITWRGGSTYYADSVKGRFTISRDNAKNTVYLPMNSLKPADTPVDYCAAEDYTYNGGGYEYWGQGTQVTVSS | low polyreactivity
38 | QVQLVESGGGLVQAGGSLRLSCAASGYTFTRYAMGWYRQAPGKEREFVAAITSGGGSTYYADSVKGRFTISRDNAKNTVYLQMNSLKPEDTAVYYCAATRLVSYHYPDLDSQQGGYWGQGTQVTVSS | low polyreactivity
39 | QVQLVESGGGLVQAGGSLRLSCAASGRTFWYNAMGWYRPAPGKERELVAAIRGSGGSTYYADSVKGRFTISRDNAKNTVYLQLNSLKPEDTAVYYCAARGFYRRTYQYENNYWGQGTQVTVSS | high polyreactivity
40 | QVQLVESAGGLVQAGGSLRLSCAASGSTFRYYAMGWSRQAPGKESELVAVISTSGNTYYADSVKGRFTISRDNAKNSVYLQMNSLIPEDTAVYYCAARGVGGQISQEYDYWGKGTQVTVSS | low polyreactivity
41 | QVQLVESGGGLDQARGSLRLSCAASGSTFYYYAMGWYRQAPGKERELVAAITSRGGRTYYADSVKGRFTISRDNAKNTVYLQMNSLKPEDTAVYYCNARTIYYGFDYWGQGTQVTVSS | low polyreactivity
42 | QDQLVESGGGLVQAGGSLRLSCAASGRTFGPYAMGWYRQAPGKEREFVAAITWRGGRTNYADSVKGRFTISRDNAKNTVYLQMNSLKPEDTAVYYCNAVISPHQWIRGGDSWGQGTQVTVSS | low polyreactivity
43 | QVQLVESGGGLVQAGGSLRLSCAASGSIFVQYAMGWYRQAPGKERELVAGITISGGRTYYADSVKGRFTISRDNAKNTVYLQMNSLKPEDTAVYYSNADVTRASSRYNSWGQGTQVTVSS | low polyreactivity
